# In paper PMC12567083, “N-terminal oligomerization drives HDAC4 nuclear condensation and neurodevelopmental dysfunction in Drosophila” (Open Biology, 2025):
# Biological target: the molecule itself
# Assay: cross-linking; 0.5 mg/ml HDAC4^N in SEC buffer (30 mM HEPES pH 7.6, 150 mM NaCl) with 0.2 mM or 2.0 mM disuccinimidyl suberate (DSS), 30 min at room temperature, quenched with Tris; SDS-PAGE and colloidal Coomassie
row,Protein,binding result
1,"HDAC4^N-WT (N-terminal fragment of Drosophila HDAC4, Pro37 to Gln143) (domain or fragment, UniProt Q9VYF3 37-143, looked up, Drosophila HDAC4 (DmHDAC4), translation of nucleotides 461-4216 of NCBI NM_132640; residues Pro37-Gln143, the region that corresponds to Ala62-Gln153 of human HDAC4; codon optimised for E. coli; Cloned in pET-15B in frame with the N-terminal 6x His tag; Which UniProt isoform equals the translation of NM_132640 is not known to me; also called wild-type N-terminal HDAC4) PHPAVDIDQQIMELKKSQELQKQRLINSFQEQSKQMELEHKLQLEHKYQFAVNSHGAFQELRNESMVTAAAAAVAQEQHRQQLHQQQQQHQQQQQQQQHQQQQQQQQ",binds
2,"HDAC4^N-F65A (domain or fragment, Drosophila, UniProt Q9VYF3 37-143, looked up, Drosophila HDAC4 (DmHDAC4), translation of nucleotides 461-4216 of NCBI NM_132640; residues Pro37-Gln143 with Phe65Ala; Made by mutagenesis of HDAC4^N-WT in pET-15B) PHPAVDIDQQIMELKKSQELQKQRLINSAQEQSKQMELEHKLQLEHKYQFAVNSHGAFQELRNESMVTAAAAAVAQEQHRQQLHQQQQQHQQQQQQQQHQQQQQQQQ",binds
3,"HDAC4^N-S69F (domain or fragment, Drosophila, UniProt Q9VYF3 37-143, looked up, Drosophila HDAC4 (DmHDAC4), translation of nucleotides 461-4216 of NCBI NM_132640; residues Pro37-Gln143 with Ser69Phe; Made by mutagenesis of HDAC4^N-WT in pET-15B) PHPAVDIDQQIMELKKSQELQKQRLINSFQEQFKQMELEHKLQLEHKYQFAVNSHGAFQELRNESMVTAAAAAVAQEQHRQQLHQQQQQHQQQQQQQQHQQQQQQQQ",binds
